# Assay results published in publication PMC5727262 (Scientific Reports, 2017).
# B1: CBP NDSM peptide (peptide)
# chain: VKVEVKEEEESSSN
# modifications: Synthetic peptide; true ends and caps are only in Figure 1A. Limits used here are the Psi-K-x-E core through x10 (x1-x10 = VKEEEESSSN, Supplementary Table 1), around sumoylation site K1056
# Molecular target: T1, Ubc9 (wild type) (UniProt P63279 1-158)
# T1 construct: Ubc9, the single SUMO conjugating enzyme (E2); the crystal structure PDB 2GRN chain a served as its model; Uniformly 15N-labelled for NMR; also called WT Ubc9; Ubc9WT; source: recombinant, purified (Ni-NTA chromatography, gel filtration)
# Assay: ITC; 2 μl additions of peptide to 200 μl of WT Ubc9 or Ac-Ubc9K65; 25 °C; pH 8.0, 20 mM potassium phosphate, 100 mM NaCl; iTC200; fitted assuming 1:1 binding stoichiometry
# Details: both partners purified
# T1 sequence (P63279 whole entry): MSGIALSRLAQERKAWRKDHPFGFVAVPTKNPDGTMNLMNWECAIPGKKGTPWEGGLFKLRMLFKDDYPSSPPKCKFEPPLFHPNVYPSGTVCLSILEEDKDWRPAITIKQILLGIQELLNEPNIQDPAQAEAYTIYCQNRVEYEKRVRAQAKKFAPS
binder,measurement,value
B1,Kd,57 µM
